These results are taken from patent US20130324409A1 (University of California, published 2013).

For data set [1], the target named is T1, PYL4 6×His-tagged protein.
T1 chain: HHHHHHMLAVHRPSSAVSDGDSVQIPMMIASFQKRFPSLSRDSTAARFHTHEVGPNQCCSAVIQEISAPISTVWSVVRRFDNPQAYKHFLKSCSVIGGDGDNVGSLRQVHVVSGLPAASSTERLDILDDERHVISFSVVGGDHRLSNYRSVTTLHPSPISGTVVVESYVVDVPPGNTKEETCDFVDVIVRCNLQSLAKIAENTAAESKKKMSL

For data set [2], the target named is T2, GST-HAB1 (Arabidopsis, UniProt Q9CAJ0 23-511).
T2 sequence (looked up): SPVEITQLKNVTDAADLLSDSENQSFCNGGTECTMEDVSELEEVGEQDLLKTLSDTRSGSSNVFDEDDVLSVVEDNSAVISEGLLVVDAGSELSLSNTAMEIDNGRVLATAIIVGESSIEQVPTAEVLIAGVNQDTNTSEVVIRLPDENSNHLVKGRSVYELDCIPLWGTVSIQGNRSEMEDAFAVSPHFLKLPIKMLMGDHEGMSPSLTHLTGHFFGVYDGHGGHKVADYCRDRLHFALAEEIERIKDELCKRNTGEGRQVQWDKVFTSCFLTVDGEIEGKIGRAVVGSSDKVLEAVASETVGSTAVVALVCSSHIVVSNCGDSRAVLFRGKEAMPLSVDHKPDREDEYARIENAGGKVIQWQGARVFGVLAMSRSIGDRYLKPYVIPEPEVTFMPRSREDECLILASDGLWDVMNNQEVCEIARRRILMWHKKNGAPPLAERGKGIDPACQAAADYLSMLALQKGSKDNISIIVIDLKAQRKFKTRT
Nature of the data set: cell-based or functional assay.

In data set [3] the target is T3, ABI1 (yeast two-hybrid construct) (UniProt P49597 1-434).
T3 construct: also called wild type ABI1; cDNA C104649
T3 sequence (looked up): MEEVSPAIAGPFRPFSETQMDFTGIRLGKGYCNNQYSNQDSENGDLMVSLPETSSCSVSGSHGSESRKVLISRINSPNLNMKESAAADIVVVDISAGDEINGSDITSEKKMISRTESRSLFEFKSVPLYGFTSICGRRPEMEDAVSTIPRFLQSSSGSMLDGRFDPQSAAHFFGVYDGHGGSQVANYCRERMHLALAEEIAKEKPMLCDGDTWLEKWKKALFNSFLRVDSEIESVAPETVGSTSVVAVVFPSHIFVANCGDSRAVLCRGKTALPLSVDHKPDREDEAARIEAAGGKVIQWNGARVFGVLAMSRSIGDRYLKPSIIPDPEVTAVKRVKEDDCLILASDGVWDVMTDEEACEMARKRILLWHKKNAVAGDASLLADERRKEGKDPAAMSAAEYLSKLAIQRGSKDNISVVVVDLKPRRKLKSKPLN
Nature of the data set: yeast two-hybrid.

Data set [4] has as its target T4, ABI2 (yeast two-hybrid construct) (UniProt O04719 1-423).
T4 construct: also called wild type ABI2; cDNA U24491
T4 sequence (looked up): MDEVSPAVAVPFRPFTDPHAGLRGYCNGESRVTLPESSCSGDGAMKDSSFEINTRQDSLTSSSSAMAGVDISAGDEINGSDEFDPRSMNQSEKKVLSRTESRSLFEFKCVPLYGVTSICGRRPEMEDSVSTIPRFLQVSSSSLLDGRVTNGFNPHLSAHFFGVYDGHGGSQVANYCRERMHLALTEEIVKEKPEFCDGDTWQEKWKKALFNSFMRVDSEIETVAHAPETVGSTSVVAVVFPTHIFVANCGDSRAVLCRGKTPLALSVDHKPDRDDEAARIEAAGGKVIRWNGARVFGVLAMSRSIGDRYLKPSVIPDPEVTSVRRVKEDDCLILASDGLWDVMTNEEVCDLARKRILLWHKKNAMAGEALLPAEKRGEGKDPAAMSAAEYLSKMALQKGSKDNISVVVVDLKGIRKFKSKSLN
Nature of the data set: yeast two-hybrid.

The target in data set [5] is T5, ABI2^G168D encoded by abi2-1 (yeast two-hybrid construct) (UniProt O04719 1-423).
T5 construct: ABA insensitive mutant protein; also called mutant protein encoded by abi2-1
T5 sequence (looked up): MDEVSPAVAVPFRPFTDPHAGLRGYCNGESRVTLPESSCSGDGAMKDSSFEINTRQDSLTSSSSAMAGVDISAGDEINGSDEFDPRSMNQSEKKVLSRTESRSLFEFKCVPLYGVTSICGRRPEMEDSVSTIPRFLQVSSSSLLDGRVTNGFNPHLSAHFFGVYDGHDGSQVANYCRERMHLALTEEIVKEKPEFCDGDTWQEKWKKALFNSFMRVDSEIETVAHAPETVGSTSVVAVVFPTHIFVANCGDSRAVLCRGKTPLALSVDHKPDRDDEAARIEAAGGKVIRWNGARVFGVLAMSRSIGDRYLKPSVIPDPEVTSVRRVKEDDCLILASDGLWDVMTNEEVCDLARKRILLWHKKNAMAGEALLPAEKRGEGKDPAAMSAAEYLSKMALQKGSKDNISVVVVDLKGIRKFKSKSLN
The data set is described as follows: yeast two-hybrid.

The target of data set [6] is T6, GST-ABI1 (UniProt P49597 1-434).
T6 construct: Used as cleared E. coli lysate in the pull-downs; not shown: glutathione S-transferase (GST)
T6 sequence (looked up): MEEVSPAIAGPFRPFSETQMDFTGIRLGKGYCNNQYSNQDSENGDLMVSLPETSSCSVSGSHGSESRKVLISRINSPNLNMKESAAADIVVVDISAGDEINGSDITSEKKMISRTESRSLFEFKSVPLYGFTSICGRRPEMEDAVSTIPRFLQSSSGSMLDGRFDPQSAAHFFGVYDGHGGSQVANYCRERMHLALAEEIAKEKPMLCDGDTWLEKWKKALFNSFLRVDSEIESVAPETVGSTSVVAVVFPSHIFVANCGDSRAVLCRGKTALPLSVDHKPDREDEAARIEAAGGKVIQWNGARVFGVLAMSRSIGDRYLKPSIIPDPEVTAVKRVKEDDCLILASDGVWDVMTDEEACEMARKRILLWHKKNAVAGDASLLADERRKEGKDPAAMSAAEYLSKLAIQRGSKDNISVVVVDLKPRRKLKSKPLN
The data set is described as follows: His-tag pull-down, E. coli lysate holding the PP2C. As to the method:
(§1) To explore the functional implications of the PYR1-PP2C interaction, we examined if an ABA response could be reconstituted in vitro. Recombinant GST-HAB1, GST-ABI1 and GST-ABI2 were expressed in E. coli and tested for ligand-dependent interactions with 6×His-PYR1 in pull-down assays. Purified 6×His-PYR1 and GST-HAB1 (20 and 100 μg respectively, 8 μM PYR1 final concentration), were combined in 100 μl TBS containing 10 μM (+)-ABA or 1% DMSO for negative control. The reaction was incubated for 90 minutes at RT and 5 μl of PrepEase (USB) His-tagged protein purification resin was added. The resin and reaction mixture was incubated 30 min at RT with gentle shaking at 5 min intervals. The resin was washed five times with TBS containing 10 μM (+)-ABA. After the final wash, the bound protein was eluted in 20 μl SDS-PAGE buffer, boiled for 5 minutes and centrifuged. 5 μl of eluate was analyzed on SDS-PAGE. For pull-downs with ABI1 and ABI2, crude lysates were used in a similar method, except purified PP2C was replaced with cleared E. coli lysates. The amount of lysate added was determined by SDS-page analysis to yield ˜100 μg PP2C, such that the same stoichiometry was used as in assays using purified proteins.

Data set [7] deals with T7, GST-ABI2 (UniProt O04719 1-423).
T7 construct: Used as cleared E. coli lysate in the pull-downs; not shown: glutathione S-transferase (GST)
T7 sequence (looked up): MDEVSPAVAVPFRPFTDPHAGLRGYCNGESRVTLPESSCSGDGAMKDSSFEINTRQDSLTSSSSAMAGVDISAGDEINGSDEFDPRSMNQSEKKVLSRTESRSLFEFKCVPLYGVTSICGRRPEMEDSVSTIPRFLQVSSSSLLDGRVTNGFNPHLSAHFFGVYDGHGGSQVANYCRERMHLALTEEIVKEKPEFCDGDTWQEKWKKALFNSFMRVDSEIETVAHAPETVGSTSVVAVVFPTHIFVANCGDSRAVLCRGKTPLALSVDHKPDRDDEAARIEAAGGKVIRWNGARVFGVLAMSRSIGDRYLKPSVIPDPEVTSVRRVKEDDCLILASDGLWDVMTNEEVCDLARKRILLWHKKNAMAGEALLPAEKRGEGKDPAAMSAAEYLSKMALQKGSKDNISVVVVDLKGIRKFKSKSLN
The data set is described as follows: His-tag pull-down, E. coli lysate holding the PP2C. Here is the method: as §1

B1: GST-HAB1 (protein)
chain: SPVEITQLKNVTDAADLLSDSENQSFCNGGTECTMEDVSELEEVGEQDLLKTLSDTRSGSSNVFDEDDVLSVVEDNSAVISEGLLVVDAGSELSLSNTAMEIDNGRVLATAIIVGESSIEQVPTAEVLIAGVNQDTNTSEVVIRLPDENSNHLVKGRSVYELDCIPLWGTVSIQGNRSEMEDAFAVSPHFLKLPIKMLMGDHEGMSPSLTHLTGHFFGVYDGHGGHKVADYCRDRLHFALAEEIERIKDELCKRNTGEGRQVQWDKVFTSCFLTVDGEIEGKIGRAVVGSSDKVLEAVASETVGSTAVVALVCSSHIVVSNCGDSRAVLFRGKEAMPLSVDHKPDREDEYARIENAGGKVIQWQGARVFGVLAMSRSIGDRYLKPYVIPEPEVTFMPRSREDECLILASDGLWDVMNNQEVCEIARRRILMWHKKNGAPPLAERGKGIDPACQAAADYLSMLALQKGSKDNISIIVIDLKAQRKFKTRT
B1: the “HAB1 phosphatase activity (substrate pNPP)” value in data set [1] was “(+)-ABA inhibits HAB1 phosphatase activity in the presence of PYL4”.

B2: 6×His-PYR1 (receptor, not shown: small tags and cut ends)
chain: MPSELTPEERSELKNSIAEFHTYQLDPGSCSSLHAQRIHAPPELVWSIVRRFDKPQTYKHFIKSCSVEQNFEMRVGCTRDVIVISGLPANTSTERLDILDDERRVTGFSIIGGEHRLTNYKSVTTVHRFEKENRIWTVVLESYVVDMPEGNSEDDTRMFADTVVKLNLQKLATVAEAMARNSGDGSGSQVT
Regarding B2, the “IC50 of (+)-ABA for inhibition of HAB1 phosphatase activity (substrate pNPP) in the presence of PYR1” value in data set [2] came out at 0.18 µM.

B3: BD-PYR1 fusion protein (receptor, not shown: large carriers; small tags and cut ends)
chain: MPSELTPEERSELKNSIAEFHTYQLDPGSCSSLHAQRIHAPPELVWSIVRRFDKPQTYKHFIKSCSVEQNFEMRVGCTRDVIVISGLPANTSTERLDILDDERRVTGFSIIGGEHRLTNYKSVTTVHRFEKENRIWTVVLESYVVDMPEGNSEDDTRMFADTVVKLNLQKLATVAEAMARNSGDGSGSQVT
notes: Pyr1 open reading frame cloned in frame into pBD-GAL4 Cam, expressed in yeast Y190; also called PYR1 Y2H bait construct; PYRABACTIN … 1
Regarding B3, the binding result in data set [3] was “binds”; in data set [4] it was “binds”; in data set [5], “no binding”.

B4: 6×His-PYR1^P88S (receptor)
chain: MPSELTPEERSELKNSIAEFHTYQLDPGSCSSLHAQRIHAPPELVWSIVRRFDKPQTYKHFIKSCSVEQNFEMRVGCTRDVIVISGLSANTSTERLDILDDERRVTGFSIIGGEHRLTNYKSVTTVHRFEKENRIWTVVLESYVVDMPEGNSEDDTRMFADTVVKLNLQKLATVAEAMARNSGDGSGSQVT
notes: also called pyr1-3 mutant protein; not shown: 6×His tag and vector residues of pET28
On to B4, for which the binding result in data set [6] and in data set [7] was “no binding (tested: 10 µM (+)-ABA)” each time.
